Assay results taken from publication PMC8459632.

Target: SpyCatcher‐mi3 fusion protein
Assay: SDS-PAGE of the covalent conjugate

In the case of “2019‐nCoV RBD‐SpyTag (from UniProt P0DTC2 319-541) (domain or fragment)”, the stoichiometry N (RBD monomers per particle) is reported as 30.
